Experimental data from US6475744 (GENERAL HOSPITAL CORPORATION A MASSACHUSETTS, dated 2002).

Molecular target: T1, βgalactosidase (UniProt P00722 1-1024 = β-galactosidase, limits assumed)
T1 construct: Construct not described; also called specificity control
Test: co-immunoprecipitation from co-transfected COS7 cells, anti-HA IP

T1 sequence (P00722 whole entry): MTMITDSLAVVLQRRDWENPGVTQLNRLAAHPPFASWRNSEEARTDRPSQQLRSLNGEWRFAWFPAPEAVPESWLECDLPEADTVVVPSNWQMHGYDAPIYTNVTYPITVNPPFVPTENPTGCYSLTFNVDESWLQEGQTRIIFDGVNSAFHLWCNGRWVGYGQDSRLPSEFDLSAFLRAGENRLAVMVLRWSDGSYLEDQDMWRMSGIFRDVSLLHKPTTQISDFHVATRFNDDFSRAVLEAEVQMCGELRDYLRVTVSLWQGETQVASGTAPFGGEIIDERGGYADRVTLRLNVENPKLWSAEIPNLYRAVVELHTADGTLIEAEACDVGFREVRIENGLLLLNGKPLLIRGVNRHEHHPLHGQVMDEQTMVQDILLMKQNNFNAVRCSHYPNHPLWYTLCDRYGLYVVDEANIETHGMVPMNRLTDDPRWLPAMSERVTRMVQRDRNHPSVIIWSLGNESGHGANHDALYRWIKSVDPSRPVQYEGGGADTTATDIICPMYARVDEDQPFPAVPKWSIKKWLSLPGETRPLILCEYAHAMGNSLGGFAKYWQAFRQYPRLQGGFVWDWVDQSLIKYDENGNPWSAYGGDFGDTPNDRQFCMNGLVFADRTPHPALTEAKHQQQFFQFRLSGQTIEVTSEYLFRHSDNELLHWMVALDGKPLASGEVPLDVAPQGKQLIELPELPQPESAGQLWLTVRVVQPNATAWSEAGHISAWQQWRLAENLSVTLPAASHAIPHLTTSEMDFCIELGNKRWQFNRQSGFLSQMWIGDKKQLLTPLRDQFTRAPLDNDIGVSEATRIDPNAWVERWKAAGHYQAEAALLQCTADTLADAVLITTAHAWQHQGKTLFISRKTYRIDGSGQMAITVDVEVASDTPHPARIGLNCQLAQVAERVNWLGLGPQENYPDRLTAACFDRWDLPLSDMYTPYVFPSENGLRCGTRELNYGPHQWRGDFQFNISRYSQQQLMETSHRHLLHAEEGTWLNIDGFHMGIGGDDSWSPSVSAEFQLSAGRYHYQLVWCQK

B1: mCRY1-HA (other, mouse, UniProt P97784 1-606, looked up, not shown: small tags and cut ends)
chain: MGVNAVHWFRKGLRLHDNPALKECIQGADTIRCVYILDPWFAGSSNVGINRWRFLLQCLEDLDANLRKLNSRLFVIRGQPADVFPRLFKEWNITKLSIEYDSEPFGKERDAAIKKLATEAGVEVIVRISHTLYDLDKIIELNGGQPPLTYKRFQTLVSKMEPLEMPADTITSDVIGKCMTPLSDDHDEKYGVPSLEELGFDTDGLSSAVWPGGETEALTRLERHLERKAWVANFERPRMNANSLLASPTGLSPYLRFGCLSCRLFYFKLTDLYKKVKKNSSPPLSLYGQLLWREFFYTAATNNPRFDKMEGNPICVQIPWDKNPEALAKWAEGRTGFPWIDAIMTQLRQEGWIHHLARHAVACFLTRGDLWISWEEGMKVFEELLLDADWSINAGSWMWLSCSSFFQQFFHCYCPVGFGRRTDPNGDYIRRYLPVLRGFPAKYIYDPWNAPEGIQKVAKCLIGVNYPKPMVNHAEASRLNIERMKQIYQQLSRYRGLGLLASVPSNSNGNGGLMGYAPGENVPSCSSSGNGGLMGYAPGENVPSCSGGNCSQGSGILHYAHGDSQQTHSLKQGRSSAGTGLSSGKRPSQEEDAQSVGPKVQRQSSN
- binding result: no binding
